Results taken from patent US20110294135, “COMPOSITIONS AND METHODS FOR ANALYTE DETECTION AND QUANTITATION” (BioDesic, LLC, published 2011).

Experiments:
[1] = molecular target: T1, LG-268-NRE (Protein LG fused to Zif268-NRE six-finger zinc finger protein) (Artificial Sequence); test: EMSA; 0.03 mM protein, Tris-glycine, room temp 15-60 min, 4-20% acrylamide gel, SYBR Gold; detector complex visible, further shifted by bovine IgG; conditions: tags: C-terminal His tag (pET20b(+)); N-terminal Protein LG fusion
Experimental: Stock solutions of LG-268-NRE (0.1 mM), the DNA detection moiety (500 ng/μl for a 50-mer and 1 μg/μl for an 80- or 100-mers), the target analytes (Bovine IgG antibodies (Equitech Bio, B60-0010; Final concentration of 1 mg/ml), and loading buffer (Jule Tris-Glycine running buffer; Jule Inc.; Catalog Number: TGNRB10X) were combined at the same time and mixed in a microfuge tube in a final reaction volume of 75 μl. Final concentrations were as follows: 0.03 mM for LG-268-NRE, 100 ng/75 μl for the 50-mer, and 10 μg/75 μl for the 80- or 100-mers. The combined mixture was then allowed to sit for 15-60 minutes at room temperature (approximately 20-22° C.). Appropriate volumes of the controls and the mixed solution were then loaded into wells of acrylamide (50 μl) or agarose gels (75 μl) and run as described below. The agarose gels and the staining buffer are made with Jule Tris-Glycine running buffer (Jule Inc.; Catalog Number: TGNRB10X). The binding reactions are also performed with a range of protein concentrations and/or in the presence of salt, e.g., 50-100 mM KCl or NaCl. Molecular weight standards were: Bioline Hyperladder 1: BIO-33053; Hyperladder 2: BIO-33054; and Hyperladder 3: BIO-33055.

[2] = molecular target: T1, LG-268-NRE (Protein LG fused to …); test: EMSA; 0.03 mM protein, Tris-glycine, room temp 15-60 min, SYBR Gold; detector complex visible, further shifted by bovine IgG; conditions: tags: C-terminal His tag (pET20b(+)); N-terminal Protein LG fusion

Row | Binder | binding result [1] | binding result [2]
1 | 80-mer DNA detection moiety (dsDNA) DNA 1: TTTTGGGGTTGATAGAAAAGATAGAGGGTATAGTGAGTCGTATTAATTTCAGAATTCATTTCAAGGGTTCAGCGTGGGCG DNA 2: CGCCCACGCTGAACCCTTGAAATGAATTCTGAAATTAATACGACTCACTATACCCTCTATCTTTTCTATCAACCCCAAAA | binds | –
2 | 100-mer DNA detection moiety (dsDNA) DNA 1: CCCACTTCATTGTGCCAAAGTTTTGGGGTTGATAGAAAAGATAGAGGGTATAGTGAGTCGTATTAATTTCAGAATTCATTTCAAGGGTTCAGCGTGGGCG DNA 2: CGCCCACGCTGAACCCTTGAAATGAATTCTGAAATTAATACGACTCACTATACCCTCTATCTTTTCTATCAACCCCAAAACTTTGGCACAATGAAGTGGG | – | binds
